In series [1] the target is insulin receptor site 2 (Homo sapiens) (UniProt P06213). Conditions: cited from earlier work.
For series [2], the target named is insulin receptor site 1 (Homo sapiens) (UniProt P06213). Conditions: cited from earlier work.
The series “SEC” concerns the molecule itself. Description: SEC.
The series “crystal structure” deals with the molecule itself. Description: crystal structure.

Chain of insulin receptor site 1 (Homo sapiens) (P06213 763-956): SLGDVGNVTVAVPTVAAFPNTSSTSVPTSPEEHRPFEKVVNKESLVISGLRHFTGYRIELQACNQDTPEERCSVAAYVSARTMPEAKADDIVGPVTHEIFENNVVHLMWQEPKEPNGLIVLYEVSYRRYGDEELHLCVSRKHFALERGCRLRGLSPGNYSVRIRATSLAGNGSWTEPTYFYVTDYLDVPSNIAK
Chain of insulin receptor site 2 (Homo sapiens) (P06213 763-956): as above

On to insulin (from UniProt P01308), for which the Kd (in general, the free concentration of one partner at which half of the binding sites on the other are occupied at equilibrium, for simple one-to-one binding) in series [1] was 400 nM; in series [2], 6.4 nM.

B1: IR593.αCT (domain or fragment, human, UniProt P06213 28-620, looked up)
chain: HLYPGEVCPGMDIRNNLTRLHELENCSVIEGHLQILLMFKTRPEDFRDLSFPKLIMITDYLLLFRVYGLESLKDLFPNLTVIRGSRLFFNYALVIFEMVHLKELGLYNLMNITRGSVRIEKNNELCYLATIDWSRILDSVEDNYIVLNKDDNEECGDICPGTAKGKTNCPATVINGQFVERCWTHSHCQKVCPTICKSHGCTAEGLCCHSECLGNCSQPDDPTKCVACRNFYLDGRCVETCPPPYYHFQDWRCVNFSFCQDLHHKCKNSRRQGCHQYVIHNNKCIPECPSGYTMNSSNLLCTPCLGPCPKVCHLLEGEKTIDSVTSAQELRGCTVINGSLIINIRGGNNLAAELEANLGLIEEISGYLKIRRSYALVSLSFFRKLRLIRGETLEIGNYSFYALDNQNLRQLWDWSKHNLTITQGKLFFHYNPKLCLSEIHKMEEVSGTKGRQERNDIALKTNGDQASCENELLKFSYIRTSFDKILLRWEPYWPPDFRDLLGFMLFYKEAPYQNVTEFDGQDACGSNSWTVVDIDPPLRSNDPKSQNHPGWLMRGLKPWTQYAIFVKTLVTFSDERRTYGAKSDIIYVQTDATTFEDYLHNVVFVPRPS
As for B1, the stoichiometry N (commonly a count of units in the complex or per binding partner) in “SEC” worked out at 2; in the series “crystal structure” it was 4.
